# According to US20130202646A1, “COMPOSITIONS AND METHODS FOR MODULATING AUTOPHAGY” (SAN DIEGO STATE UNIVERSITY (SDSU) FOUNDATION, priority 2010, published 2013):
# Key:
# HL-1 cells [1] = test: Autophagy scored by intracellular distribution of GFP-LC3 (fluorescence microscopy) in HL-1 cells; assay type: cell-based, murine; settings: for modulation of autophagy: HL-1 cells transfected with LC3GFP, treated with Tat protein (FIG. 18)
# HL-1 cells [2] = test: Protection in cell culture by recombinant Tat-Beclin1; assay type: cell-based
# HL-1 cells [3] = test: Cell death by LDH release after simulated ischemia/reperfusion (sI/R) in HL-1 cells; assay type: cell-based, murine
# Method: Cells of the murine atrial-derived cardiac cell line HL-1^16 were plated in gelatin/fibronectin-coated culture vessels and maintained in Claycomb medium^16 (JRH Biosciences, Lenexa, Kans.) supplemented with 10% fetal bovine serum, 0.1 mm norepinephrine, 2 mm […], 100 U·mL^-1 penicillin, 100 U·mL^-1 streptomycin, and 0.25 μg·mL^-1 amphotericin B. Cells were plated in 14-mm diameter glass bottom microwell dishes (MatTek), and ischemia was introduced by a buffer exchange to ischemia-mimetic solution (in mM: 20deoxyglucose, 125 NaCl, 8 KCl, 1.2 KH2PO4, 1.25 MgSO4, 1.2 CaCl2, 6.25 NaHCO2, 5 sodium lactate, 20 HEPES, pH 6.6) and placing the dishes in hypoxic pouches (GasPakTM EZ, BD Biosciences) equilibrated with 95% N2, 5% CO2. After 2 hr of simulated ischemia, reperfusion was initiated by a buffer exchange to normoxic MKH buffer and incubation at 95% room air, 5% CO2. […] Protein content and LDH activity were determined according to El-Ani et al.^20. Briefly, 25 μl supernatants from 35 mm dishes were transferred into wells of a 96-well plate, and the LDH activities were determined with an LDH-L kit (Sigma), according to the manufacturer. The product of the enzyme was measured spectrophotometrically at 30° C. at a wavelength of 340 nm as described previously^21. […]
# adult rat cardiomyocytes [4] = test: Autophagy (GFP-LC3 puncta) in adult rat cardiomyocytes; assay type: cell-based; settings: Tat protein 30 min before CCPA
# [5] = test system: isolated perfused rat hearts; test: Langendorff global ischemia/reperfusion injury in isolated perfused rat hearts (CK release, TTC infarct size, hemodynamics)
# [6] = test system: isolated perfused rat hearts; test: Autophagy in isolated perfused rat hearts (LC3-II/LC3-I Western blot, cadaverine dye binding); settings: Tat protein approximately 200 nM before SUL
# adult rat cardiomyocytes [7] = test system: adult rat cardiomyocytes
Molecule,modulation of autophagy (HL-1 cells [1]),protection (HL-1 cells [2]),"autophagy (HL-1 cells [1]; transient transfection, co-transfected with GFP-LC3 (FIG. 6))","effect on autophagy in the second window of protection (HL-1 cells [1]; with CCPA 10 min, washout, 20-24 hr later)","effect on cytoprotection by CCPA (LDH release) (HL-1 cells [3]; inhibitor plus CCPA, then sI/R (2 hr sI, 3 hr R))","effect on cytoprotection by CCPA in the second window of protection (LDH release) (HL-1 cells [3]; with CCPA 10 min, washout, sI/R 20-24 hr later)",effect on autophagy (adult rat cardiomyocytes [4]),"effect on protection by sulfaphenazole given at reperfusion (infarct size) ([5]; FIG. 17, 3 hearts per condition)","infarct size ([5]; absence of SUL, vehicle control 38.5%, p=NS) [%]","infarct size ([5]; pretreatment with Tat-Atg5^K130R, then SUL infusion)","effect on autophagy induced by SUL (LC3-II/I ratio, cadaverine dye binding) [6]","effect on protection by CCPA (LDH release) (adult rat cardiomyocytes [7]; Tat protein 30 min before CCPA, then simulated ischemia)","LDH release under normoxic conditions (adult rat cardiomyocytes [7]; absence of CCPA, normoxia)","injury from sI/R (adult rat cardiomyocytes [7]; absence of CCPA, sI/R)"
Tat-Beclin1: cell-permeable recombinant Tat fusion of rat Beclin 1; stimulant or activator of autophagy (protein) MRGSHHHHHHGMASMTGGQQMGRDLYDDDDKDRWGSKLGYGRKKRRQRRRGGSTMSGYPYDVPDYAGSMAGTGLEMEGSKASSSTMQVSFVCQRCSQPLKLDTSFKILDRVTIQELTAPLLTTAQAKPGESQEEEANSGEEPFIETRQDGVSRRFIPPARMMSTESANSFTLIGEASDGGTMENLSRRLKVTGDLFDIMSGQTDVDHPLCEECTDTLLDQLDTQLNVTENECQNYKRCLEMLEQMNEGDSEQLQRELKELALEEERLIQELEDVEKNRKVVAENLEKVQAEAERLDQEEAQYQREYSEFKRQQLELDDELKSVENQMRYAQMQLDKLKKTNVFNATFHIWHSGQFGTINNFRLGRLPSAPVEWNEINAAWGQTVLLLHALANKMGLKFQRYRLVPYGNHSYLESLTDKSKELPLYCSGGLRFFWDNKFDHAMVAFLDCVQQFKEEVEKGETRFCLPYRMDVEKGKIEDTGGSGGSYSIKTQFNSEEQWTKALKFMLTNLKWGLAWVSSQFYNK,stimulates autophagy,protection in cell culture,–,–,–,–,–,–,–,–,–,–,–,–
"Atg5^K130R: dominant negative point mutant of Atg5 delivered by transient transfection in HL-1 cells (protein, UniProt Q9H1Y0 1-275, looked up, variant K130R, mCherry fusion, dominant negative point mutant of Atg5 delivered by transient transfection in HL-1 cells) Autophagy protein 5: MTDDKDVLRDVWFGRIPTCFTLYQDEITEREAEPYYLLLPRVSYLTLVTDKVKKHFQKVMRQEDISEIWFEYEGTPLKWHYPIGLLFDLLASSSALPWNITVHFKSFPEKDLLHCPSKDAIEAHFMSCMREADALKHKSQVINEMQKKDHKQLWMGLQNDRFDQFWAINRKLMEYPAEENGFRYIPFRIYQTTTERPFIQKLFRPVAADGQLHTLGDLLKEVCPSAIDPEDGEKKNQVMIHGIEPMLETPLQWLSEHLSYPDNFLHISIIPQPTD",–,–,effectively suppressed autophagy,suppressed autophagy in the second window of protection,eliminated the protective effects of CCPA after sI/R,abolished the cytoprotective effect of CCPA,–,–,–,–,–,–,–,–
"Tat-Atg5^K130R: Atg5^K130R expressed as a fusion protein with the protein transduction domain derived from HIV Tat; cell-permeable dominant negative inhibitor of autophagy (protein, synthetic peptide or nucleic acid) MRGSHHHHHHGMASMTGGQQMGRDLYDDDDKDRWGSKLGYGRKKRRQRRRGGSTMSGYPYDVPDYAGSMAGTMTDDKDVLRDVWFGRIPTCFTLYQDEITEREAEPYYLLLPRVSYLTLVTDKVKKHFQKVMRQEDVSEIWFEYEGTPLKWHYPIGLLFDLLASSSALPWNITVHFKSFPEKDLLHCPSKDAVEAHFMSCMREADALKHKSQVINEMQKKDHKQLWMGLQNDRFDQFWAINRKLMEYPPEENGFRYIPFRIYQTTTERPFIQKLFRPVAADGQLHTLGDLLREVCPSAVAPEDGEKRSQVMIHGIEPMLETPLQWLSEHLSYPDNFLHISIVPQPTD",inhibits autophagy,–,–,–,–,–,suppressed autophagy,protection is lost,42.0,30 % of the area at risk,potently suppressed autophagy induced by SUL,eliminated the protection by CCPA,did not increase LDH release,nor did it exacerbate injury from sI/R
